The text below walks through data of article PMC12259851, “Rapid detection and capture of clinical Escherichia coli strains mediated by OmpA-targeting nanobodies” (Communications Biology, 2025).

The target of assay [1] is T1, OmpF on E. coli K-12 MC1061 cells (Escherichia coli K-12 MC1061, UniProt P02931).
T1 construct: outer membrane protein OmpF, E. coli K-12 MC1061; The homotrimeric state is cited from other work; also called E. coli K12 strain; source: endogenous, on E. coli MC1061 cells
As to the kind of experiment: flow cytometry on cells; Nb18 on the E. coli K12 strain (Supplementary Fig. 11c); conditions not told for this experiment. Particulars: one partner purified.

Assay [2] concerns the target T2, OmpA-short on clinical E. coli strain CS#2 (Escherichia coli clinical isolate CS#2 …, UniProt P0A910, strain).
T2 construct: OmpA, short isoform, of clinical isolate CS#2; Dense O-antigen layer; source: endogenous, on cells of clinical E. coli isolate CS#2
As to the kind of experiment: flow cytometry on cells; as a8, CS#2, with EDTA during staining. The conditions noted are these: one partner purified. For orientation: Flow cytometry measures light scatter and fluorescence of single cells or particles in a stream.

Assay [3] has as its target T2, OmpA-short on clinical E. coli strain …. The assay is described as follows: flow cytometry on cells; as a8, CS#2, with the anticoagulant heparin. The conditions noted are these: one partner purified.
Assay [4] shares this target. The assay is described as follows: flow cytometry on cells; as a8, CS#2, with the anticoagulant citrate phosphate dextrose (CPD). The conditions noted are these: one partner purified.
Assay [5] has as its target T3, OmpA-short on E. coli K-12 MC1061 cells (Escherichia coli K-12 MC1061, UniProt P0A910).
T3 construct: Strain devoid of O-antigen; source: endogenous, on E. coli MC1061 cells
As to the kind of experiment: flow cytometry on cells; concentration series of Nb01-AF647; cells fixed after staining (2% PFA), CytoFlex S, triplicates; Hill equation; apparent affinity (EC50); cells grown in LB. The conditions noted are these: one partner purified.

The target in assay [6] is T4, OmpA-short on clinical E. coli strain CS#1 (Escherichia coli clinical isolate CS#1 …, UniProt P0A910, strain).
T4 construct: OmpA, short isoform, of clinical isolate CS#1; Loose, partially permeable O-antigen layer; also called clinical strain #1; source: endogenous, on cells of clinical E. coli isolate CS#1
Described as above. Particulars: one partner purified.

Assay [7] addresses T2, OmpA-short on clinical E. coli strain …. The assay is described as above. The conditions noted are these: one partner purified.
Assay [8] deals with T5, OmpA-short on E. coli K1 strain ATCC 11775 (Escherichia coli K1 ATCC 11775, strain).
T5 construct: OmpA, short isoform, of E. coli K1 ATCC 11775; loop regions identical to those of MC1061 OmpA-short; Strain with a K1 polysaccharide capsule; also called E. coli K1 OmpA-short; source: endogenous, on cells of E. coli K1 ATCC 11775
T5 chain: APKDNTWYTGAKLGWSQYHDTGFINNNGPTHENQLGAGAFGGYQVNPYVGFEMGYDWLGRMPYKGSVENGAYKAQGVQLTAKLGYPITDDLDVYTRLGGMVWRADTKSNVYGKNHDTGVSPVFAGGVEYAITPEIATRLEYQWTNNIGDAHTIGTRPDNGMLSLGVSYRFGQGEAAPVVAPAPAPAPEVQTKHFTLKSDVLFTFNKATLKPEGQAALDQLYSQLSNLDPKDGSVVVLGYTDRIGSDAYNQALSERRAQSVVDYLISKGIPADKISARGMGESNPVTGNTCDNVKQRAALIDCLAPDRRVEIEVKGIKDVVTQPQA
The assay is described as above. Particulars: one partner purified.

The target in assay [9] is T6, Transmembrane domain of OmpA-short (Escherichia coli K-12 MC1061, UniProt P0A910).
T6 construct: OmpA, short isoform, E. coli K-12 MC1061, transmembrane (β-barrel) domain; also called β-barrel domain of OmpA-short
The assay is described as follows: crystal structure; β-barrel domain of OmpA mixed 1:1.1 with the nanobody, sitting drop vapor diffusion at 20 °C; interface analysed with PDBePISA. Particulars: both partners purified.

For orientation: EC50 means the midpoint of the concentration-response curve.

T1 sequence (P02931 23-362): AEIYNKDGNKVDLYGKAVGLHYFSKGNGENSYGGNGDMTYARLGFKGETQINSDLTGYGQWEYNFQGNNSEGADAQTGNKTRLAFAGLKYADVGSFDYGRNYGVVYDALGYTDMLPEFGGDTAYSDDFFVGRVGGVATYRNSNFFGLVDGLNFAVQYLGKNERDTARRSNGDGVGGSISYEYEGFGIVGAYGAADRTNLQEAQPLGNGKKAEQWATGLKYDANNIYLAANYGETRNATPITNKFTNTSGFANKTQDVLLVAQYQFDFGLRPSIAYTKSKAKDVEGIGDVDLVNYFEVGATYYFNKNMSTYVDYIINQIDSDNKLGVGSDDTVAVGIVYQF

B1: Nb18 (for flow cytometry) (VHH)
VHH: QRQLVESGGGLVQAGGSLTLSCSATGTVPRIDAMGWYRRSTGKKREQVASVGRGGRTNYSDSAKGRFTISRNGNTVTLQMTSLKPEDTDVYFCNALKYGRNADYDDYWGRGTRVTVSA
notes: nanobody Nb18 (alpaca VHH against OmpF); the flow cytometry methods speak of Alexa Fluor 647-labeled nanobodies (cysteine at the C-terminus, pSBinit with myc- and His-tag); also called OmpF nanobody
B1 displayed a half-maximal effective concentration (EC50) in [1] of 3 nM.

B2: Nb01-AF647 (VHH)
VHH: QVQLVESGGGLVQPGGSLRLSCVVSGTGFTFSKSPMSWARQAPGKEREWVSAIFADSSTYYSDSVRGRFTISRDNAKNTVYLQMNNVKPEDTAVYYCGHRRLGKTTYDYRGKGTRVTVSA
notes: nanobody Nb01 (alpaca VHH against OmpA-short); also called AlexaFluor647-labeled Nb01; source: E. coli MC1061 ΔompA (pSBinit), periplasmic extraction, purified (Ni-NTA, SEC), labelled with maleimide-AF647
In the case of B2, the EC50 in [2] worked out at 4.98 nM; in [3], 4.7 nM; in [4] it was 7.4 nM; in assay [5] it was 12.9 nM; in assay [6] it was 25.9 nM; in [7], 61.1 nM. In assay [8], the concentration giving a half-maximal response (EC50) turned out to be 84.9 nM.

B3: Nb01 (for X-ray crystallography) (VHH)
VHH: QVQLVESGGGLVQPGGSLRLSCVVSGTGFTFSKSPMSWARQAPGKEREWVSAIFADSSTYYSDSVRGRFTISRDNAKNTVYLQMNNVKPEDTAVYYCGHRRLGKTTYDYRGKGTRVTVSA
notes: nanobody Nb01 (alpaca VHH against OmpA-short); source: E. coli MC1061 ΔompA (pBXNPHM3), purified (Ni-NTA, 3C cleavage, reverse Ni-NTA, SEC)
Turning to B3, in assay [9], the binding result is given as “binds”.
